Test results as given in US20030073629.

Target: XIAP, P98170
Sequence (P98170 whole entry): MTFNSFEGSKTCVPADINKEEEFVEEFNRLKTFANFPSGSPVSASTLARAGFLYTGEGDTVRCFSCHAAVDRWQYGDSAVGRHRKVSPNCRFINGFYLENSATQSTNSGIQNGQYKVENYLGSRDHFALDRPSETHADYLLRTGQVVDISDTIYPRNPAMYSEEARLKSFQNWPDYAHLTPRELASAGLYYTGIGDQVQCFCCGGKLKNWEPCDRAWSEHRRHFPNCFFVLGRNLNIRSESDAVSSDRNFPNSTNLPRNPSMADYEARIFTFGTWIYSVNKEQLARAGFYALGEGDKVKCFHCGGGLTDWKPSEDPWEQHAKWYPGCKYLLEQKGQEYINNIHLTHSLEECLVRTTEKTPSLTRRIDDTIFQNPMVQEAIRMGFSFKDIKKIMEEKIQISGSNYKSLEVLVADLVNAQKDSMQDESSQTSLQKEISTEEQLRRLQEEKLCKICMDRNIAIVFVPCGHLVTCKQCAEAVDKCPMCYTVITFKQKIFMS

B1: Omi-deltaAVPS (C-terminal His6-tagged recombinant mature Omi with the AVPS motif deleted) (protein)
chain: PPPASPRSQYNFIADVVEKTAPAVVYIEILDRHPFLGREVPISNGSGFVVAADGLIVTNAHVVADRRRVRVRLLSGDTYEAVVTAVDPVADIATLRIQTKEPLPTLPLGRSADVRQGEFVVAMGSPFALQNTITSGIVSSAQRPARDLGLPQTNVEYIQTDAAIDFGNSGGPLVNLDGEVIGVNTMKVTAGISFAIPSDRLREFLHRGEKKNSSSGISGSQRRYIGVMMLTLSPSILAELQLREPSFPDVQHGVLIHKVILGSPAHRAGLRPGDVILAIGEQMVQNAEDVYEAVRTQSQLAVQIRRGRETLTLYVTPEVTEHHHHHH
- procaspase-3 activation in XIAP-containing S100 extracts stimulated with cytochrome c and dATP: deletion of this motif abolished its caspase-promoting activity

B2: C-terminal His6-tagged recombinant wild type mature Omi (Omi lacking the first 133 residues) (protein)
chain: AVPSPPPASPRSQYNFIADVVEKTAPAVVYIEILDRHPFLGREVPISNGSGFVVAADGLIVTNAHVVADRRRVRVRLLSGDTYEAVVTAVDPVADIATLRIQTKEPLPTLPLGRSADVRQGEFVVAMGSPFALQNTITSGIVSSAQRPARDLGLPQTNVEYIQTDAAIDFGNSGGPLVNLDGEVIGVNTMKVTAGISFAIPSDRLREFLHRGEKKNSSSGISGSQRRYIGVMMLTLSPSILAELQLREPSFPDVQHGVLIHKVILGSPAHRAGLRPGDVILAIGEQMVQNAEDVYEAVRTQSQLAVQIRRGRETLTLYVTPEVTEHHHHHH
- procaspase-3 activation in XIAP-containing S100 extracts stimulated with cytochrome c and dATP: mature WT Omi or the S306A mutant were able to promote procaspase-3 activation in the XIAP-containing S100 extracts almost to the same extent as Smac

B3: Omi-S306A (C-terminal His6-tagged recombinant mature Omi, active site Ser306 to Ala) (protein)
chain: AVPSPPPASPRSQYNFIADVVEKTAPAVVYIEILDRHPFLGREVPISNGSGFVVAADGLIVTNAHVVADRRRVRVRLLSGDTYEAVVTAVDPVADIATLRIQTKEPLPTLPLGRSADVRQGEFVVAMGSPFALQNTITSGIVSSAQRPARDLGLPQTNVEYIQTDAAIDFGNAGGPLVNLDGEVIGVNTMKVTAGISFAIPSDRLREFLHRGEKKNSSSGISGSQRRYIGVMMLTLSPSILAELQLREPSFPDVQHGVLIHKVILGSPAHRAGLRPGDVILAIGEQMVQNAEDVYEAVRTQSQLAVQIRRGRETLTLYVTPEVTEHHHHHH
- procaspase-3 activation in XIAP-containing S100 extracts stimulated with cytochrome c and dATP: mature WT Omi or the S306A mutant were able to promote procaspase-3 activation in the XIAP-containing S100 extracts almost to the same extent as Smac
